Values quoted from earlier work as cited in PMC8689690.

Biological target: IL-28R1 (Homo sapiens) (UniProt Q8IU57)
Experiment: ELISA

Sequence of UniProt Q8IU57 (Q8IU57 21-228): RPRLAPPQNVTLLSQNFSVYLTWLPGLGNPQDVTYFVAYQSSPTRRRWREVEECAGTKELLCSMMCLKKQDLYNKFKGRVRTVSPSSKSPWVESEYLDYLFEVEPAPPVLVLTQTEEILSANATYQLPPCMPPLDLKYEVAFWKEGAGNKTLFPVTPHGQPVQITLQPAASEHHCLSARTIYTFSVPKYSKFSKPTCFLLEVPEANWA

Substance: IFNL1 (from UniProt Q8IU54)
- Kd: 15 nM

Substance: IFNL3 (from UniProt Q8IZI9)
- Kd: 65 nM
